Target: human complement Factor H (human) (UniProt P08603)
Experiment: steady state fluorescence, titration of purified human Factor H with rOPN

Chain of human complement Factor H (human) (P08603 19-1231 limits assumed): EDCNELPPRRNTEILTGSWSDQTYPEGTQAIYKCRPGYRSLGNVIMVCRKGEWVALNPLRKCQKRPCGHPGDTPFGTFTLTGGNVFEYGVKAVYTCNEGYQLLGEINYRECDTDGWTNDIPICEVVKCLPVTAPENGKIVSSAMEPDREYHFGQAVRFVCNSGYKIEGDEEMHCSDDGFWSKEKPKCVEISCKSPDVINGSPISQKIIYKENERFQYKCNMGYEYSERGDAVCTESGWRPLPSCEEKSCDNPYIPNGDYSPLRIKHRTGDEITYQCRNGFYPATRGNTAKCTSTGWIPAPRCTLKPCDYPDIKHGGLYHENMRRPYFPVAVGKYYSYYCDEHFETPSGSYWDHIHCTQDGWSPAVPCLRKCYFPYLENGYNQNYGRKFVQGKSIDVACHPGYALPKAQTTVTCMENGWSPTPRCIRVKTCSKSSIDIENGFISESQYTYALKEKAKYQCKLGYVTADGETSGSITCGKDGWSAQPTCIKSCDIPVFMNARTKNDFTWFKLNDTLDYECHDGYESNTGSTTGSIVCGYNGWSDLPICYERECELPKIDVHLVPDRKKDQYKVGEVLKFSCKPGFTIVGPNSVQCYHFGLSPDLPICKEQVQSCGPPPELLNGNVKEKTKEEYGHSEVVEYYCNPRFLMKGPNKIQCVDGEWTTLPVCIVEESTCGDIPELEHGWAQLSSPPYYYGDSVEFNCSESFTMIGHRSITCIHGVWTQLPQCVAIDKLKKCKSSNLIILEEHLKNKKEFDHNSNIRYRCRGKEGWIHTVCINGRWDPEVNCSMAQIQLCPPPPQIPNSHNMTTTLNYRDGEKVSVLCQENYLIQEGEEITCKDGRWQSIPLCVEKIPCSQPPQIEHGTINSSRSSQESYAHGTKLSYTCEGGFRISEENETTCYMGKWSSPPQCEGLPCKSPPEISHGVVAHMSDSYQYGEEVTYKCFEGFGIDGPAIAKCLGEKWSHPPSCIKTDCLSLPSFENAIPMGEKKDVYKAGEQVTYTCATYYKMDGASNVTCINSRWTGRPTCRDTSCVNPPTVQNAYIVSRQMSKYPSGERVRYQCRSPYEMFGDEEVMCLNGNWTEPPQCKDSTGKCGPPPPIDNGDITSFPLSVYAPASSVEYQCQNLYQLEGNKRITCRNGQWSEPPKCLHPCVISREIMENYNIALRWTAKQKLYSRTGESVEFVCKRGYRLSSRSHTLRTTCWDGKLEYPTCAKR

stoichiometry (OPN:Factor H): 1 mol/mol
Substance: recombinant osteopontin (rOPN) (from UniProt P10451 17-300) (ligand)

From patent US6995018
